Assay results reported in publication PMC3377380.

Target: GST-Obsc_(6316–6345) (Rattus norvegicus)
Experiment: SPR

fold slower dissociation than wild type: 3 times
Substance: sAnk1-I102F (MBP fusion) (domain or fragment)
